Measurements published in patent publication US20140154265.

T1: RLRGG-AMC, C-terminal peptide motif of Ub and ISG15 coupled to aminomethylcoumarin
T1 chain: RLRGG


What was measured:
[1] = molecular target: FLAG-tagged ubiquitin, P0CG48
[2] = molecular target: T1, RLRGG-AMC, C-terminal peptide motif of …
[3] = molecular target: ubiquitin-aminomethylcoumarin, P0CG48
ubiquitin-aminomethylcoumarin, P0CG48, sequence (P0CG48 whole entry, looked up): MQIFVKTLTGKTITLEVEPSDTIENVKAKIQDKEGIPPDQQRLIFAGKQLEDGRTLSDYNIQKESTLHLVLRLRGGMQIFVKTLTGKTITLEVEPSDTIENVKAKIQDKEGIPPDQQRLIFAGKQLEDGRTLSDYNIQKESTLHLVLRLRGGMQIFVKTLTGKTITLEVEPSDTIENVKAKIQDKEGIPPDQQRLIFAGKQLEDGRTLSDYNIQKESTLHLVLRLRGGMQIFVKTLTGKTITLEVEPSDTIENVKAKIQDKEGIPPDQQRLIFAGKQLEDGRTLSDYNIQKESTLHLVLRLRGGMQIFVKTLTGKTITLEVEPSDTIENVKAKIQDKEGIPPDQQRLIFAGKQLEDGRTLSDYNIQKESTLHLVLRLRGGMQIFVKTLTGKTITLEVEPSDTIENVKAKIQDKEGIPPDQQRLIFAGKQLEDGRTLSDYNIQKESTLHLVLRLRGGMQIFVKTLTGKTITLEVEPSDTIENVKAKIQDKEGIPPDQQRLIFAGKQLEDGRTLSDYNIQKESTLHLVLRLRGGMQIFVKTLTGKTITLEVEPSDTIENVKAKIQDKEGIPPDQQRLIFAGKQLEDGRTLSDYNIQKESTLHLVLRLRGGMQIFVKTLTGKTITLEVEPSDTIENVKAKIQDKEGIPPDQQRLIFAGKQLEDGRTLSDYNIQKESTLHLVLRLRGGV

FLAG-tagged ubiquitin, P0CG48, sequence (P0CG48 whole entry, looked up): as above

| Protein | density of the alpha-flag lane (amount of remaining ubiquitin conjugates) [1] | kcat/KM [2] | kcat/KM [3] | kcat/KM value for Ub-AMC against that of the wild-type [3] |
| --- | --- | --- | --- | --- |
| EAV nsp2-3 polyprotein (residues 261-1064 of EAV pp1a) with N-terminal HA tag, PLP2 mutant I353R (protein) GYNPPGDGACGYRCLAFMNGATVVSAGCSSDLWCDDELAYRVFQLSPTFTVTIPGGRVCPNAKYAMICDKQHWRVKRAKGVGLCLDESCFRGRCNCQRMSGPPPAPVSAAVLDHILEAATFGNVRVVTPEGQPRPVPAPRVRPSANSSGDVKDPAPVPPVPKPRTKLATPNPTQAPIPAPRTRLQGASTQEPLASAGVASDSAPKWRVAKTVYSSAERFRTELVQRARSVGDVLVQALPLKTPAVQRYTMTLKMMRSRFSWHCDVWYPLAVIACLLPIWPSLALLLSFAIGLIPSVGNNVVLTALLVSSANYVASMDHQCEGAACLALLEEEHYYRAVRWRPITGALSLVLNLLGQVGYVARSTFDAAYVPCTVFDLCSFAILYLCRNRCWRCFGRCVRVGPATHVLGSTGQRVSKLALIDLCDHFSKPTIDVVGMATGWSGCYTGTAAMERQCASTVDPHSFDQKKAGATVYLTPPVNSGSALQCLNVMWKRPIGSTVLGEQTGAVVTAVKSISFSPPCCVSTTLPTRPGVTVVDHALYNRLTASGVDPALLRVGQGDFLKLNPGFRLIGGWIYGICYFVLVVVSTFTCLPIKCGIGTRDPFCRRVFSVPVTKTQEHCHAGMCASAEGISLDSLGLTQLQSYWIAAVTSGLVILLVCHRLAISALDLLTLASPLVLLVFPWASVGLLLACSLAGAAVKIQLLATLFVNLFFPQATLVTMGYWACVAALAVYSLMGLRVKVNVPMCVTPAHFLLLARSAGQSREQMLRVSAAAPTNSLLGVARDCYVTGTTRLYIPKEGGMVFE | shows a density of the alpha-flag lane that is about twice as high as that of the T312A lane | – | – | – |
| EAV nsp2-3 polyprotein (residues 261-1064 of EAV pp1a) with N-terminal HA tag, PLP2 mutant T312A (protein) GYNPPGDGACGYRCLAFMNGATVVSAGCSSDLWCDDELAYRVFQLSPTFTVAIPGGRVCPNAKYAMICDKQHWRVKRAKGVGLCLDESCFRGICNCQRMSGPPPAPVSAAVLDHILEAATFGNVRVVTPEGQPRPVPAPRVRPSANSSGDVKDPAPVPPVPKPRTKLATPNPTQAPIPAPRTRLQGASTQEPLASAGVASDSAPKWRVAKTVYSSAERFRTELVQRARSVGDVLVQALPLKTPAVQRYTMTLKMMRSRFSWHCDVWYPLAVIACLLPIWPSLALLLSFAIGLIPSVGNNVVLTALLVSSANYVASMDHQCEGAACLALLEEEHYYRAVRWRPITGALSLVLNLLGQVGYVARSTFDAAYVPCTVFDLCSFAILYLCRNRCWRCFGRCVRVGPATHVLGSTGQRVSKLALIDLCDHFSKPTIDVVGMATGWSGCYTGTAAMERQCASTVDPHSFDQKKAGATVYLTPPVNSGSALQCLNVMWKRPIGSTVLGEQTGAVVTAVKSISFSPPCCVSTTLPTRPGVTVVDHALYNRLTASGVDPALLRVGQGDFLKLNPGFRLIGGWIYGICYFVLVVVSTFTCLPIKCGIGTRDPFCRRVFSVPVTKTQEHCHAGMCASAEGISLDSLGLTQLQSYWIAAVTSGLVILLVCHRLAISALDLLTLASPLVLLVFPWASVGLLLACSLAGAAVKIQLLATLFVNLFFPQATLVTMGYWACVAALAVYSLMGLRVKVNVPMCVTPAHFLLLARSAGQSREQMLRVSAAAPTNSLLGVARDCYVTGTTRLYIPKEGGMVFE | a mutant such as T312A already shows a level of DUB-activity that leads to a significantly denser alpha-flag lane, which represents the amount of remaining ubiquitin conjugates, than that of the wild-type virus | – | – | – |
| EAV PLP2 domain (residues 261-392 of EAV pp1a) with C-terminal HIS6 purification tag, wild-type (protein) GYNPPGDGACGYRCLAFMNGATVVSAGCSSDLWCDDELAYRVFQLSPTFTVTIPGGRVCPNAKYAMICDKQHWRVKRAKGVGLCLDESCFRGICNCQRMSGPPPAPVSAAVLDHILEAATFGNVRVVTPEGQHHHHHH | – | 48 ± 8 M⁻¹ s⁻¹ | 21000 ± 2000 M⁻¹ s⁻¹ | – |
| EAV PLP2 domain I353R mutant (Ile353Arg), recombinant enzyme (protein) GYNPPGDGACGYRCLAFMNGATVVSAGCSSDLWCDDELAYRVFQLSPTFTVTIPGGRVCPNAKYAMICDKQHWRVKRAKGVGLCLDESCFRGRCNCQRMSGPPPAPVSAAVLDHILEAATFGNVRVVTPEGQHHHHHH | – | 71 ± 8 M⁻¹ s⁻¹ | 1100 ± 100 M⁻¹ s⁻¹ | the kcat/KM value for Ub-AMC of the mutant I353R is 20 times lower than that of the wild-type virus |
